From patent publication US20190062422A1 (MorphoSys, published 2019)
Substitutions are numbered along the chain they refer to.

T1: mouse IL-17B (mouse, UniProt Q9QXT6 23-180, limits assumed)
T1 sequence (looked up): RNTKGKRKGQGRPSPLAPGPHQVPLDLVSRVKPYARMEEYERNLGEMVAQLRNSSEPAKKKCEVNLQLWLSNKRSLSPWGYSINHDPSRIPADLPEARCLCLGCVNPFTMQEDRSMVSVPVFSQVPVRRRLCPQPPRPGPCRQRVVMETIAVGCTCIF

T2: human IL17C (human, UniProt Q9P0M4 19-197)
T2 sequence: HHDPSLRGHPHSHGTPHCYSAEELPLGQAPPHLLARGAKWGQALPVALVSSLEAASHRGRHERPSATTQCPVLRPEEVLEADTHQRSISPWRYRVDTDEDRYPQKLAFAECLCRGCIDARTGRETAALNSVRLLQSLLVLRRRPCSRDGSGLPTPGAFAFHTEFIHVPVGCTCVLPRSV

T3: mouse IL-17RB (mouse, UniProt Q9JIP3 18-286)
T3 construct: extracellular domain; also called IL17 receptor B
T3 sequence (looked up): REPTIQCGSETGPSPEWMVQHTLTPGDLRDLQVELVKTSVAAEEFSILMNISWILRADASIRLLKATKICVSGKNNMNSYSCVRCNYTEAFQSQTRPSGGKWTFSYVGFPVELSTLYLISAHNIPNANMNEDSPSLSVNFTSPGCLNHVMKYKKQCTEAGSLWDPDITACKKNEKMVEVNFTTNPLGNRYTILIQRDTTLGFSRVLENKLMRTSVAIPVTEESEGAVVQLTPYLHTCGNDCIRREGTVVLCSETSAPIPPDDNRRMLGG

B1: MOR12754 (antibody, V domains shown)
VH: EVQLLESGGGLVQPGGSLRLSCAASGFTFSDYAMTWVRQAPGKGLEWVSVISYDGSLTYYADSVKGRFTISRDNSKNTLYLQMNSLRAEDTAVYYCARDPGVWWLSYLDYWGQGTLVTVSS
VL: DIQMTQSPSSLSASVGDRVTITCRASQDIISYLAWYQQKPGKAPKLLIYGASNLQGGVPSRFSGSGSGTDFTLTISSLQPEDFAVYYCQQYMIAPPNTFGQGTKVEIKR
notes: Tested as human-mouse chimeric IgG2a (human variable, mouse constant regions); Potential N-linked glycosylation sites were removed by site-directed mutagenesis
B2: MOR12743 (antibody, V domains shown)
VH: QVQLVQSGAEVKKPGASVKVSCKASGYTFTSNFIHWVRQAPGQGLEWMGWISPYNGDTNYAQKFQGRVTMTRDTSISTAYMELSRLRSEDTAVYYCARESVYYGSDYGYNGMDIWGQGTLVTVSS
VL: DIELTQPPSVSVSPGQTASITCSGDNLGEEYVSWYQQKPGQAPVLVIYDDTKRPSGIPERFSGSNSGNTATLTISGTQAEDEADYYCASWDLWSVEVFGGGTKLTVLG
notes: Tested as human-mouse chimeric IgG2a (human variable, mouse constant regions); Potential N-linked glycosylation sites were removed by site-directed mutagenesis; also called MOR12743_h/m; MOR1243
B3: MOR12745 (antibody, V domains shown)
VH: B2 VH
VL: B2 VL with A88S, S89A, D91A, L92T, E96A
notes: as for B1
B4: MOR12746 (antibody, V domains shown)
VH: B2 VH
VL: B2 VL with A88S, D91T, L92H, W93F, V95N, E96I
notes: as for B1
B5: MOR12744 (antibody, V domains shown)
VH: B2 VH
VL: B2 VL with D91A, L92F, W93Y, V95S, E96Q
notes: as for B1
B6: MOR12742 (antibody, V domains shown)
VH: QVQLVQSGAEVKKPGSSVKVSCKASGGTFSSYGISWVRQAPGQGLEWMGRIIPIFGTAYYAQKFQGRVTITADESTSTAYMELSSLRSEDTAVYYCARDMRYHDYWPYYYGSDQFDVWGQGTLVTVSS
VL: DIVLTQPPSVSGAPGQRVTISCSGSSSNIGSDIVSWYQQLPGTAPKLLIYYNNLRPSGVPDRFSGSKSGTSASLAITGLQAEDEADYYCQSWDWASLAMVFGGGTKLTVLG
notes: as for B1
B7: MOR12753 (antibody, V domains shown)
VH: QVQLQQSGPGLVKPSQTLSLTCAISGDSVSSSSAAWNWIRQSPSRGLEWLGRIEYRSKWYNDYAVSVKSRITINPDTSKNQFSLQLNSVTPEDTAVYYCAREMYYYSGYGVFDVWGQGTLVTVSS
VL: B2 VL with N26A, E29G, S33H, T51D, A88S, W90F, L92T, S94T, V95S, E96Y
notes: as for B1
B8: mouse IL17C (ligand, UniProt Q8K4C5 17-194, looked up)
chain: DPPSWGKPRSHRTLRCYSAEELSHGQAPPHLLTRSARWEQALPVALVASLEATGHRRQHEGPLAGTQCPVLRPEEVLEADTHERSISPWRYRIDTDENRYPQKLAVAECLCRGCINAKTGRETAALNSVQLLQSLLVLRRQPCSRDGTADPTPGSFAFHTEFIRVPVGCTCVLPRSTQ
modifications: biotinylated in the receptor interaction, inhibition and serum stability assays (sites not given)
notes: Bought recombinant protein; About 22 kDa reduced and about 40 kDa non-reduced on SDS-PAGE; Used plain (coated, ELISA) or biotinylated; also called biotinylated mouse IL17C; biotin-IL17C

Molecular target: B8
Experiment: ELISA on biotin-IL17C captured on avidin: chimeric IgG2a incubated 24 h at 37°C in mouse serum against freshly diluted IgG2a
Experimental: 96 well Maxisorp plates (Nunc; #442404) were coated with avidin at a concentration of 1 μg/ml in PBS overnight at 4° C. The next day, anti-IL17 chimeric IgG2a were incubated in mouse serum for 24 h at 37° C. at a final concentration 100 μg/mL. After the incubation step the antibodies were diluted 1:100 in LowCross buffer (Candor Bioscience; #100500). As a reference the same set of antibodies were freshly diluted in LowCross buffer+1% mouse serum and incubated for 30 min at RT. Avidin coated plates were incubated with blocking buffer (Superblock blocking buffer from Pierce, #37515) and subsequently 100 μL of 0.1 μg/mL biotin-IL17C in LowCross buffer was added to blocked wells. After a washing step a serial dilution of the serum-incubated and freshly diluted IgGs was added. Binding of IgGs was detected by anti-mouse-IgG2a POD conjugated detection antibody (diluted 1:5000 in LowCross buffer) using TMB One Component HRP as substrate. The reaction was stopped by adding 1M HCl and absorbance was measured at 450 nm.

| Binder | Coefficient of variation (Mouse Serum Stability Assay 24h/37°C) |
| --- | --- |
| B1 | 17% |
| B2 | 2.88% |
| B3 | 15.9% |
| B4 | 7.36% |
| B5 | 11.8% |

Molecular target: T1, mouse IL-17B
Experiment: ELISA, purified chimeric IgG2a

| Binder | binding result |
| --- | --- |
| B6 | no binding |
| B7 | no binding |

Molecular target: T2, human IL17C
Experiment: ELISA, purified chimeric IgG2a

| Binder | binding result |
| --- | --- |
| B6 | no binding |
| B7 | no binding |

Molecular target: B8
Experiment: mIL17C - mIL-17RE inhibition assay (MSD): human/mouse IgG2a pre-incubated with biotinylated mouse IL17C, binding to coated mouse IL17RE/Fc detected by Streptavidin-ECL
Experimental: To determine inhibitory activity of purified anti-IL17C human-mouse chimeric IgG2a in a mIL-17 RE interaction assay, Maxisorp™ 384 well MSD plates were coated with 30 μL mouse IL17RE/Fc at 75 ng/mL in PBS at 4° C. overnight. The next day 25 μL of a serial antibody dilution (concentrations from 0.001 to 100 nM) were pre-incubated for 30 min at RT with an equal volume of biotinylated mouse IL17C at 0.125 nM. After blocking of plates for 1 h with 2.5% BSA in PBST, preformed antibody-ligand complexes were added for 1 h to coated IL17RE/Fc and receptor binding was detected via Streptavidin-ECL using MSD Sector Imager.
To characterize the antibodies in human/mouse IgG2a format in more detail, for each candidate IC₅₀ values were determined in the IL-17 receptor E inhibition assay as described herein above in up to 4 independent experiments.

| Binder | IC50 |
| --- | --- |
| B1 | 8.44 nM |
| B2 | 0.016 nM |
| B3 | 0.013 nM |
| B4 | 0.023 nM |
| B5 | 0.012 nM |

Molecular target: B8
Experiment: solution equilibrium titration (SET), ECL based, monovalent Fab fragment (Fab_FH format)
Experimental: Monovalent affinities of anti-IL17C antibodies were determined by solution equilibrium titration (SET) using Fab fragments. Affinity determination in solution was basically performed as described in the literature (Friquet et al., (1985) J. Immunol. Meth. 77: 305-19). In order to improve the sensitivity and accuracy of the SET method, it was transferred from classical ELISA to ECL based technology (Haenel et al. (2005) Anal Biochem. 339.1: 182-84). Binders were expressed and purified in Fab_FH format.

| Binder | Kd |
| --- | --- |
| B1 | 4.1 nM |
| B2 | 0.048 nM |
| B7 | 0.062 nM |
| B3 | 0.075 nM |
| B4 | 0.056 nM |
| B5 | 0.053 nM |

Molecular target: T3, mouse IL-17RB
Experiment: MSD receptor interaction assay, coated receptor, biotinylated mouse IL17C, streptavidin detection
Experimental: To test binding of mouse IL17 to its putative receptor, IL17 receptor E an interaction assay was set up. The assay setup is depicted in FIG. 1A. In brief, IL17 receptors B and E were coated on a Multi-array® 384-well plate Standard plate (Meso Scale Discovery; #L21XA-4) and biotinylated mouse IL17C was added. Binding of mouse IL17C to its receptor was measured via binding of Streptavidin in a MSD Sector Imager 6000 (Meso Scale Discovery, Gaithersburg, Md., USA).

| Binder | binding result |
| --- | --- |
| B8 | no binding |

Molecular target: T1, mouse IL-17B
Experiment: ELISA, purified chimeric human/mouse IgG2a on msIL-17B

| Binder | binding result |
| --- | --- |
| B1 | no binding |
| B2 | no binding |
| B3 | no binding |
| B4 | no binding |
| B5 | no binding |

Molecular target: T2, human IL17C
Experiment: ELISA, purified chimeric human/mouse IgG2a on huIL-17C

| Binder | binding result |
| --- | --- |
| B1 | no binding |
| B2 | no binding |
| B3 | no binding |
| B4 | no binding |
| B5 | no binding |

Molecular target: B8
Experiment: ELISA, purified chimeric human/mouse IgG2a titrated on mouse IL17C, n=1-2
Experimental: All purified chimeric human-mouse chimeric IgG2a antibodies were titrated on mouse IL17C for EC₅₀ determination in ELISA starting with a concentration of 100 nM. EC₅₀ values on mouse IL17C were determined in 1 to 3 independent experiments.

| Binder | EC50 |
| --- | --- |
| B1 | 0.4 nM |
| B2 | 0.3 nM |
| B3 | 0.4 nM |
| B4 | 0.38 nM |
| B5 | 0.28 nM |
